Measured values as given in patent US7884067B2, “Peptides derived from cadherin and methods of use thereof” (Mount Sinai School of Medicine of New York University, priority 2001, dated 2011).

Key:
CBP [1] = molecular target: T1, CBP (Mus musculus, UniProt P45481); assay: Co-immunoprecipitation in pN-Cad/CTF2-transfected L cells; format: binding; details: FIG. 11B
T1 construct: a process that relies on endogenous CBP and CREB; endogenous in cells; host or cells: L cells transfected with vector or pN-Cad/CTF2
T1 sequence (P45481 whole entry): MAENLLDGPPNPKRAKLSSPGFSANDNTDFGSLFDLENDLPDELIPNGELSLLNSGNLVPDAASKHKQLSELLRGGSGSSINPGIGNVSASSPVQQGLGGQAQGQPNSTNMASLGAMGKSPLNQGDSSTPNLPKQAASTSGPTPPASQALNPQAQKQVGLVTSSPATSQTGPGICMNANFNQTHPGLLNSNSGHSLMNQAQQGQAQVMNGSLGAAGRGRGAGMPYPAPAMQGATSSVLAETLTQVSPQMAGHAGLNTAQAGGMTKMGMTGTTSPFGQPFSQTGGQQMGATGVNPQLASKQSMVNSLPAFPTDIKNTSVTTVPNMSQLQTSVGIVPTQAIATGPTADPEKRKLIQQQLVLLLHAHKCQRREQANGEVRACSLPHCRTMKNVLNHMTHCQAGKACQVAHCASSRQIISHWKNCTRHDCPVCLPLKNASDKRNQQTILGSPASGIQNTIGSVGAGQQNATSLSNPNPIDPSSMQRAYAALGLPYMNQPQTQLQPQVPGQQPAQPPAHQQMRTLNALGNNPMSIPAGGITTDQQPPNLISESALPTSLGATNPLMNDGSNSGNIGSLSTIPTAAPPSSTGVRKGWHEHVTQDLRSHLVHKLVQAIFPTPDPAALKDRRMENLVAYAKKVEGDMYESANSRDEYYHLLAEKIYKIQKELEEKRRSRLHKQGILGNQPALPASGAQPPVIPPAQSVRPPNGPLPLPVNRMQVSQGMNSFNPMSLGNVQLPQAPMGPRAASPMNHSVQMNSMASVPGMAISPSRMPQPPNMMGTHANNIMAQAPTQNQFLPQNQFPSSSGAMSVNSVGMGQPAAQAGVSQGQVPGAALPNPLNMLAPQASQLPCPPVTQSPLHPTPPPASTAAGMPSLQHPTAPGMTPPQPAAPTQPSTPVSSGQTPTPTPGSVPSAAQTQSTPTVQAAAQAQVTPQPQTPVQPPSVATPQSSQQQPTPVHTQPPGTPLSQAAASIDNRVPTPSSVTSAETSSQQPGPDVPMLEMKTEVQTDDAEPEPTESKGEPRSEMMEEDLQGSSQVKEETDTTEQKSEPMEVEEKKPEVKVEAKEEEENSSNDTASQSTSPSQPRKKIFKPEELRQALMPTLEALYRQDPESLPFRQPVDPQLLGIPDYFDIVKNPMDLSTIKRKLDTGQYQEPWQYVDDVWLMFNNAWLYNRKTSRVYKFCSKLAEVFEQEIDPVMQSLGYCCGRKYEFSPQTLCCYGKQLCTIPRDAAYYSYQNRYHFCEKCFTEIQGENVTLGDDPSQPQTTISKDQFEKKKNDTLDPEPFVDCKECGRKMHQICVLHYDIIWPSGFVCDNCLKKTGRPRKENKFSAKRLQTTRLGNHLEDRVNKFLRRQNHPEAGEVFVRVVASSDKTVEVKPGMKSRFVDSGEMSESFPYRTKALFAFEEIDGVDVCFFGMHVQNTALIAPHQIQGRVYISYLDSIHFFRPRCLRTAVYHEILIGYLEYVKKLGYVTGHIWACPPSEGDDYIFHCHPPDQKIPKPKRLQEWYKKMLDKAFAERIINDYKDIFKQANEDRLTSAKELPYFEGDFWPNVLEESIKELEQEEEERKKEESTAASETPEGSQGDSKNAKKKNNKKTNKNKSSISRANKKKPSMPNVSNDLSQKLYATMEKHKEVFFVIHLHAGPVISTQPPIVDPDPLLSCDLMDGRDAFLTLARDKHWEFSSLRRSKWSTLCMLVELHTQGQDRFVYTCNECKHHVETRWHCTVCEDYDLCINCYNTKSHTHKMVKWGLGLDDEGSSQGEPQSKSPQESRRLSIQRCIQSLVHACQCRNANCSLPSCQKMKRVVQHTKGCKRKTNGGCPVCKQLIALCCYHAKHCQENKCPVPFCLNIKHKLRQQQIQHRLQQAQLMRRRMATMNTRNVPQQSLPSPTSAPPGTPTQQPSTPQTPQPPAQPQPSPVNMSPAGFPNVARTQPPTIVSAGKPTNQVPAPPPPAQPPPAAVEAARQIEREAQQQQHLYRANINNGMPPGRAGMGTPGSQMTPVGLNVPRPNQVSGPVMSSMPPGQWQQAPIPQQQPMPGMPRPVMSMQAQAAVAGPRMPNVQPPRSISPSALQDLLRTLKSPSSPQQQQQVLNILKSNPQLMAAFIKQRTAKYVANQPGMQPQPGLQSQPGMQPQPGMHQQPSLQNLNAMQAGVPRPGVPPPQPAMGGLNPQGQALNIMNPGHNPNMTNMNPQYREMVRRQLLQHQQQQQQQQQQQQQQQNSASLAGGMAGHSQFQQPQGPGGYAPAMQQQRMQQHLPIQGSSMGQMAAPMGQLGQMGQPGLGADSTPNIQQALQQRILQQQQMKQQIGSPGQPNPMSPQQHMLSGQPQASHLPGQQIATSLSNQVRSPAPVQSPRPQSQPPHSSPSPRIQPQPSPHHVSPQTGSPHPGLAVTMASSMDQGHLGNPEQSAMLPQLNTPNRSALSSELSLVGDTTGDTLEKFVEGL
Description: Immunoprecipitations (IPs), immunoblotting and immunofluorescence. IPs were performed as described by Marambaud et al. (2002) EMBO J. 21: 1948-1956 in 4° C. HEPES buffer (25 mM HEPES, pH 7.4, 150 mM NaCl, 1× Complete protease inhibitor cocktail, Roche) containing 0.5% Nonidet P40 (NP40). For western blot (WB) analysis, cells were solubilized in 4° C. RIPA buffer (50 mM Tris-HCl, pH 8, 150 mM NaCl, 0.1% SDS, 1% NP-40, 0.5% sodium deoxycholate, 1× Complete protease inhibitor cocktail) as described by Marambaud et al. (2002). Immunofluorescence was performed as described by Georgakopoulos et al. (1999) with the following modifications: to visualize nuclei, cells were treated for 5 minutes with 4′,6-diamidino-2-phenylndole (DAPI, 1:5000; Sigma). Fluorescence microscopy and digital image acquisition were carried out using an Axioskop2 microscope (Zeizz).
To determine how N-Cad/CTF2 affects CREB-mediated transcription, the following experiments were performed. L cells transfected either with vector (vector) or pN-Cad/CTF2 (N-Cad/CTF2) plasmids were fractionated into nuclear and cytosolic fractions, and probed on WBs with anti-CBP (FIG. 11A, panel a), anti-N-cadherin (FIG. 11A, panel b), anti-β-tubulin (FIG. 11A, panel c) or anti-phosphorylated CREB (P-CREB; FIG. 11A, panel d) antibodies. […] L cells transiently transfected with pN-Cad/CTF2 were analyzed by immunofluorescence staining. […]

CBP [2] = molecular target: T1, CBP; assay: Nuclear/cytosolic fractionation of transfected L cells (Western blot); format: cell-based
Description: Subcellular fractionation. Transfected cells were washed in PBS, placed into 1 ml of buffer A (20 mM Tris-HCl, pH 7.5, 0.25 M sucrose, 10 mM EGTA, 2 mM EDTA, Ix Complete protease inhibitor cocktail), and then passed through a 27 gauge needle 10 times. Obtained lysates were centrifuged at 500×g for 10 minutes and pellets (nuclear fraction) were washed twice with 1 ml of buffer A containing 0.1% Triton X-100 and solubilized by sonication in RIPA buffer. Supernatants were centrifuged at 120,000×g for 45 minutes at 4° C. to separate cytosolic and crude membrane fractions. A 50 μg protein aliquot from the nuclear and cytosolic fractions was analyzed on WBs.
To determine how N-Cad/CTF2 affects CREB-mediated transcription, the following experiments were performed. L cells transfected either with vector (vector) or pN-Cad/CTF2 (N-Cad/CTF2) plasmids were fractionated into nuclear and cytosolic fractions, and probed on WBs with anti-CBP (FIG. 11A, panel a), anti-N-cadherin (FIG. 11A, panel b), anti-β-tubulin (FIG. 11A, panel c) or anti-phosphorylated CREB (P-CREB; FIG. 11A, panel d) antibodies. Extract from pN-Cad/CTF2-transfected L cells was immunoprecipitated either with non-immune serum (NI) or with antibodies against CBP (CBP), β-tubulin (β-Tub), E-cadherin (C36) or N-cadherin (C32). Obtained IPs were probed with anti-CBP (FIG. 11B, upper panel), anti-N-cadherin (FIG. 11B, middle panel) or anti-β-tubulin (FIG. 11B, lower panel) antibodies. For reference, cell lysate was also probed (FIG. 11B, first lane). L cells transiently transfected with pN-Cad/CTF2 were analyzed by immunofluorescence staining. Cells were triple-labeled with DAPI (blue), anti-CBP (red) and anti-N-cadherin (C32; green) antibodies. Nuclear extract from pN-Cad/CTF2-transfected L cells were incubated with biotinylated double-stranded DNA probes containing binding sequence for either CREB (FIG. 11C, left panel) or MEF-1 (FIG. 11C, right panel). […]

CHOP-response elements = assay: CHOP-mediated transactivation (luciferase) in L cells; format: cell-based; details: L cells transfected with pN-Cad/CTF2, FIG. 9A
Description: Transactivation assays. CRE-dependent transactivation was measured in the absence or presence of overexpression of PKA (pFC-PKA, Stratagene) by cotransfection with CRE-luciferase reporter plasmid (pCRE-Luc, Stratagene) and pSV-β-galactosidase vector (Promega) to evaluate transfection efficiency. CHOP-mediated transactivation was measured by cotransfection with the Gal4-fusion trans-activator plasmids (pFA-CHOP and pFR-Luc, Stratagene). 30 hours after transfection, luciferase and β-galactosidase activities were determined following manufacturer's instructions using a TD-20/20 luminometer (Turner Designs) and a DU-64 spectrophotometer (Beckman). Values were normalized to β-galactosidase activity and protein concentration.
Stimulation of synaptic NMDA receptor leads to phosphorylation of transcription factor CREB that then recruits transcription co-activator CBP, a process ultimately leading to activation of CREB-mediated gene expression (Impey and Goodman (2001) Sci STKE, PE1). […] CRE-dependent transactivation was measured in the absence (−) or presence (+) of […] PKA (pFC-PKA) using CRE-luciferase reporter plasmid (pCRE-Luc) and pSV-β-galactosidase vector. CHOP-mediated transactivation was measured by […] with the Gal4-fusion trans-activator plasmids (pFA-CHOP and pFR-Luc) and pSV-β-galactosidase vector. […]

MEF-1 = assay: Electrophoretic mobility shift assay, MEF-1 probe; format: biochemical; details: FIG. 11C lanes 12-14
Description: Electrophoresis mobility shift assay (EMSA). Nuclear extract from CBP-transfected L cells were prepared using the extraction kit N-XTRACT (Sigma) according to manufacturer's instructions. Ten microgram of nuclear extract was used for EMSA performed according to manufacturer's instructions using biotinylated double-stranded oligonucleotide probes containing DNA-binding motifs for CREB or MEF-1 (Panomics). Probes are as follow: CREB, 5′-[…]-3′ (SEQ ID NO: 17); MEF-1,5′-[…]-3′ (SEQ ID NO: 18). Reaction products were separated on 6% polyacrylamide gels in cold TBE buffer (50 mM Tris-HCl, 45 mM Boric acid, 0.5 mM EDTA), transferred to nylon membranes (Immobilon-Ny+, Millipore) and bound probes were immobilized for 30 minutes at 85° C. and visualized by chemiluminescence using streptavidin-HRP conjugate. For antibody supershift analysis, nuclear extract was incubated for 3 hours at 4° C. with […] of 1 B6 antibody prior to probe addition. Where indicated, nuclear extract ([…]) was immunoprecipitated with A-22 antibody ([…]) and protein A-agarose in EBC buffer (50 mM Tris, pH 8, 120 mM NaCl, 0.5% NP40, 1× Complete protease inhibitor cocktail).

B1: N-Cad/CTF2: chicken cytoplasmic domain of N-cadherin (N-Cad/CTF2) inserted into vector pECE, expressed in L cells (protein)
chain: KRRDKERQAKQLLIDPEDDVRDNILKYDEEGGGEEDQDYDLSQLQQPDTVEPDAIKPVGIRRLDERPIHAEPQYPVRSAAPHPGDIGDFINEGLKAADNDPTAPPYDSLLVFDYEGSGSTAGSLSSLNSSSSGGEQDYDYLNDWGPRFKKLADMYGGGDD
CBP [1]
  co-immunoprecipitation of N-Cad/CTF2 with CBP: co-immunoprecipitates with CBP
CBP [2]; N-Cad/CTF2 overexpression, FIG. 11A panel d
  change of CREB phosphorylation: not detected
CBP [2]; transfection with N-Cad/CTF2, FIG. 11A panel d
  localization of phosphorylated CREB: no effects
CBP [2]; transfection with N-Cad/CTF2 vs vector, FIG. 11A
  nuclear and cytosolic CBP: nuclear CBP decreased with a concomitant increase in cytosolic CBP
CHOP-response elements
  transactivation by CHOP-response elements: not affected
MEF-1
  complex formation between MEF-1 and DNA probe containing MEF-1-binding elements: no effect
